Assay [1] has as its target EphA4 Fc (human EphA4 Fc, #CJ75, Novoprotein, or mouse EphA4 Fc, #641-A4, R&D Systems/BioTechne) (human or mouse) (UniProt P54764). Briefly: competition ELISA, inhibition of ephrin-A5 AP binding to immobilized EphA4 Fc. On the technique in general: In an ELISA, binding on a coated surface is turned into a signal by an enzyme label.
The target is the same in assay [2]. Briefly: competition ELISA, inhibition of ephrin-A5 AP binding to immobilized EphA4 Fc (Table 2, repeats Table 1).

Sequence of EphA4 Fc (human EphA4 Fc, #CJ75, Novoprotein, or mouse EphA4 Fc, #641-A4, R&D Systems/BioTechne) (human or mouse) (P54764 20-547): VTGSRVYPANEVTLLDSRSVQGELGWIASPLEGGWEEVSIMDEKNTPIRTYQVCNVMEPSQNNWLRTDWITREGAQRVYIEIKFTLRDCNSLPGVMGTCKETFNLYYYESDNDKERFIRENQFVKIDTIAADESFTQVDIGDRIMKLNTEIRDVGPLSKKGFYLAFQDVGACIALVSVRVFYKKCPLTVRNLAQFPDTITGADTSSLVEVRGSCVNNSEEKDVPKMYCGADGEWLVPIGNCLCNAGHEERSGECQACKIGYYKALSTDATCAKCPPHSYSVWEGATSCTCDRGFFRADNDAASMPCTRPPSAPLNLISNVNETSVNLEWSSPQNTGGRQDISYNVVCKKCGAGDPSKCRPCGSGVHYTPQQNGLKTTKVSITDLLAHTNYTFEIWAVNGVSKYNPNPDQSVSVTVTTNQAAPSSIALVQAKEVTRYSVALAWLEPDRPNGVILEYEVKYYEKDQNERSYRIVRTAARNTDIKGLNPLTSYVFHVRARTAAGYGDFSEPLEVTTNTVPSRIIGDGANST

B1: APY-d3-PEG4 (peptide)
peptide: XPYCVYRXSWSCXXX
modifications: β-alanine at 1 and 8; disulfide bond Cys4-Cys12 (Cyc (4,12)); three 6-aminohexanoic acid (Ahx) residues and propargyl-glycine (Pra) after Cys12; 30 kDa methoxy-PEG on Pra through a triazole (click chemistry); free C-terminal acid (-OH)
Regarding B1, the IC50 in assay [1] and in assay [2] was 0.02 µM each time.

Broadly, the IC50 is the concentration needed to halve the response being measured.
